Here are results for four molecules from publication PMC12583524.

B1: C34 IgG (antibody, V domains shown)
VH: EVQLVESGGGLVQPGRSLRLSCAASGFTFDDYAMHWVRQAPGKGLEWVSGISWNSGSIGYADSVKGRFTISRDNAKNSLYLQMNSLRAEDTALYYCAKDMGYSGNDDYYGMDVWGQGTTVTVSS
VL: DIQLTQSPSSLSASVGDRVTITCRASQRISSYLNWYQQKPGKAPKLLIYGAFSLQSGVPSRFSGSGSGTDFTLTISSLQPEDFATYYCQQSYRTLTRTFGQGTKVEIK
B2: C34 Fab (papain digestion of the mAb) (Fab, V domains shown)
VH: B1 VH
VL: B1 VL
B3: C37 Fab (papain digestion of the mAb) (Fab, V domains shown)
VH: QVQLQESGPGLVKPSETLSLTCTVSGGSIGSSSYYWGWIRQPPGKGLQWIGSFHYSGTTYYNPSLKSRVTISVDTSKNHFSLKLSSVTAADTAVYYCASRQNWNDGYFDYWGQGTLVTVSS
VL: DIQMTQSPATLSLSPGERATLFCRASQSVSSSLAWYQQKPGQAPRLLIYDASNRATGIPARFSGSGSGTDFTLTISSLEPEDFAVYYCQQRGNWPPITFGQGTRLDTK
B4: C37 IgG (antibody, V domains shown)
VH: B3 VH
VL: B3 VL

For the test, the target named is infectious CHIKV virion particle with E3 associated (strain CHIKV-181/25) (Chikungunya virus) (UniProt Q8JUX5).
infectious CHIKV virion particle with E3 associated (strain CHIKV-181/25) (Chikungunya virus), sequence (Q8JUX5 whole entry, looked up): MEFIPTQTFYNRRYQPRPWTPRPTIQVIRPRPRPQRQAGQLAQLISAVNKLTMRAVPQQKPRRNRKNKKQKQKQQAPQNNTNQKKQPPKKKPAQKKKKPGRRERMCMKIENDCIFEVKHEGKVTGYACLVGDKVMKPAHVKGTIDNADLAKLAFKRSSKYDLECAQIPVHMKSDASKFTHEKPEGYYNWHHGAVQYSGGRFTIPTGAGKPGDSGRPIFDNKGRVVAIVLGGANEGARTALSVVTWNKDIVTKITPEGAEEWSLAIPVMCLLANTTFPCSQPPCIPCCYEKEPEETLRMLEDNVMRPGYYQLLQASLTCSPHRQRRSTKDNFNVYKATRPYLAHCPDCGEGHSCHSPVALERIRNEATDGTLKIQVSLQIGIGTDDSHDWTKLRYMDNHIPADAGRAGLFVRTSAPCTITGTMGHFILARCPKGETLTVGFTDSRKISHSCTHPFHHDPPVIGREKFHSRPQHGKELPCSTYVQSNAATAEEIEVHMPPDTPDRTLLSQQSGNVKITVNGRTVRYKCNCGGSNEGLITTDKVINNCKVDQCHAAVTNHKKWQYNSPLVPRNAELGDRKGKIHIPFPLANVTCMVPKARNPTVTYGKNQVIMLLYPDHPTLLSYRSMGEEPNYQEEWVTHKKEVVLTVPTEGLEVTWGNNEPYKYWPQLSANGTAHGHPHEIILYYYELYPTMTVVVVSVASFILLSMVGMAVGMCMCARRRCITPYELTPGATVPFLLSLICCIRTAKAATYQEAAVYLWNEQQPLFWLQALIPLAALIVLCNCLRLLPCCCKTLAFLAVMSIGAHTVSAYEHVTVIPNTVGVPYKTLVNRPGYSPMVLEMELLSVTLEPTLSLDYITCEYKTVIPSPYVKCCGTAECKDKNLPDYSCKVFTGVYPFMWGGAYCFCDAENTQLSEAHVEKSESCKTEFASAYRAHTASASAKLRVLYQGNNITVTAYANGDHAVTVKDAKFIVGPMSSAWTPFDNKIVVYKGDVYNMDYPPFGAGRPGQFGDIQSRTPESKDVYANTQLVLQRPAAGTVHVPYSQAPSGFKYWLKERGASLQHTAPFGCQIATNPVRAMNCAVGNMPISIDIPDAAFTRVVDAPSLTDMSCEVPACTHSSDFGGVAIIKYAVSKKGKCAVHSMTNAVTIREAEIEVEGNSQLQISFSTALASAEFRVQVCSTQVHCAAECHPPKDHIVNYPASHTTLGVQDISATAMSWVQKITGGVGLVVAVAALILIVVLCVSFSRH
For the molecule B1, the PRNT50, post-attachment neutralisation assay on Vero cells amounted to 48.7 ng/mL.

For B2, the PRNT50, post-attachment neutralisation assay on Vero cells worked out at 97 ng/mL.

As to B3, the PRNT50, post-attachment neutralisation assay on Vero cells was determined as 727 ng/mL.

Molecule B4 showed a PRNT50, post-attachment neutralisation assay on Vero cells of 164 ng/mL.
